Reference: the DeepSol protein solubility set

Test: soluble on expression in E. coli; label from the status in PepcDB or PDB records

Soluble on expression in E. coli, not soluble:
MGSDKIHHHHHHMKFPERFAHLPPYAFPRLRALLDHHAPGGDVVQLTIGEPKHEFPAWVTDVIVENASAFNNYPQNEGSDALRGAMADWAAQRYGVTLDPATRVMALNGTREGLYNAAMALCPEEKNGQRPVVLIPNPFYQVYMIAAISVAAEPVFVPATDETGHLPDYASLPEEVLNRTAIAYICSPANPQGAVASREYWQQLFALAEKYDFKVFADECYSEIYRDTAPVGALTVADEMGLDPERVVLFNSLSKRSNLPGLRCGLLAGGPETLVQVKKLRAYSGAPIPGPLQAAAAKVWADEVHVAENRALYQEKYRIADEVFAGLNGYMSPEAGFFLWLPVEDGEAATLKLWQETGVRVLPGAFLAQGKGAENPGHGYIRVALVASEEQTRASLQLLRDCLY
MGSDKIHHHHHHMKFYNRENELAELQRIQELSFEENSRLTVVTGRRRIGKTSLIMRAFEKTPTIYLFVGRKNEASLCREFITLVSQALDIYVPEEISTFKSLFRYIMEVATRQSFNLVIDEFQEFYNINKSIYSDIQDIWDQYRQKTHMNFVVSGSIYSLMEKIFHNEKEPLFGRADNIIKLSAFSLNVLKKIIKDYHPQYTNDDLLALYSFSGGVPKYVELFCDNRVLTVDGMIDFMVRDNSPFTDEGKNLLIEEFGKNYGTYFSILSAISGGYNTQTEIEALLGEKSLGGYLKRLIEDYNIVVRQRPVFSKEGSQTVRYGICDNFIHFWFNYFDRNRSLIEIKNFIGLRKLIKADYPTYSGKILEQYFKQKYAESYEFRLIGSWWEPKGNQNEIDIVAIYLDNKSAIVAEVKRQKKNFKPELFQKKVEHLENKVLAKYQINTVCLSLEDM
MGSDKIHHHHHHMKICVLYSGGKDSTYALHWAVFKGFEVVCLITLIPKREDSWMFQYPNVIYTKYQAEAMDFKLITFGTSGEKDKELEDLKKALLQAKNEGADGIVSGALLSDYQRLNISIIAEELGLKTYTPLWRKSQEEYMRWLVKEGFKFIITSASAYGFPFDLVGKEITTEDVEKIIERARRYGFNPAFEGGEAETFVTYAPLFKTQLRVNGKLKRISEYECRYEITDIH
MGSDKIHHHHHHMKIEFDVVVVGAGPSGLSCAYVLAKNGLKVAVVEKGEYPGSKNVMGGVLYVHPLKEIMPDFLEKAANSKALERNVIEQNLWLLGNEGVIKIGHRNVEWKENPNAFTVLRANFDRWFAQEVEKAGALIIPKTKVEDFLRNEKGEIAGVVTSRPKGEIHSKAVVIAEGVNPILTMKAGLRKEDLKPHMVAVAVKEVISVPEDVVNRVFGVEGNDGATIELLGSWSEGMFGMGFLYANRSSVSLGCGVLLEDLRKKKIKPYQLLENLKNHPVISDMLGEYRNNTMEYLAHLIPEGGYYAMPKVYGDRVLVCGDAAMLVNSIHREGSNHAITSGRLAAETLLEAFEKGDFSEKILKNYYLRLKESFILKDLEKYKDLMPTMEKNHQFVEIYPDLANDALKRFLQVDGTPKWDVQKQIADMVLSRRSLIGISLDLLRFWRAVR
MGSDKIHHHHHHMKIKIGKVEKRLNQIIEEEGAVYLTLLDPEEENIEEIAENVKDYADAIMVGGSIGIVNLDETVKKIKKITKLPIILFPGNVDGLSRYADAVFYMSLMNSANTYWVVTAPTLGAITILKYNLEPIPMAYLCIEPAKKTAVGYVGEIREIPQNKPKITAMYCLSAKFFGMRWAYLEAGSGASYPVNNETIALSKKLSGINIIVGGGIRKPEIAYEKVLAGADAIVTGNLLEENPKAVEMMYDAIKKAGKEKLKNK
MGSDKIHHHHHHMKILHYIPSIDRTSGGVGTYMQLLTAELGKLVELHVVTHKETNPLELKNCHVHFIENNNPFLPKEKKNFIFLLNEIKPDVFHANCCWLPMSAYTAMWARNAGYHVVYTPHGMLEPWIMKRHYWTKKFPASLLFQKRGIQIANVIHATAESEKHNLTQLGWNNNIEVIPNCVEIDKITMKESWIRNKNILFLSRVHVKKGINFLIEATANLKTELQGYTINIAGEGEESYINELKQLASKLGVENLIHFIGGVYGDKKWELFKKADLFVLPTHSENFGIVVAEALACGTPVITTQGTPWQELESYHCGWWTEIGTEATTKALKEFLQCTETQLEQMGKNGRKLIEEKYSSQKVAQDMVELYKKVCL
MGSDKIHHHHHHMKISERQKDLLKEIGNIGAGNAATAISYMINKKVEISVPNVEIVPISKVIFIAKDPEEIVVGVKMPVTGDIEGSVLLIMGTTVVKKILEILTGRAPDNLLNLDEFSASALREIGNIMCGTYVSALADFLGFKIDTLPPQLVIDMISAIFAEASIEELEDNSEDQIVFVETLLKVEEEEEPLTSYMMMIPKPGYLVKIFERMGIQE
MGSDKIHHHHHHMKIVFITTVASSIYGFRAPVIKKLIGKNHQVYAFVSEFSDNELDIIREMGVTPVTYRSNRSGVNPFSDIKSTFLIFKALKKISPDLVFPYFAKPVIFGTFAAKLAGVPRIVGMLEGLGFAFTPQPEGIPLKTKIIKGILIALYRIALPMLESLIVLNPDDKDELLHQYGIKIKNIHILGGIGLDLRQYPYSEADIPDEKEPVKFLFIGRFLKEKGIDDFIRAAEQVKGKYPDTVFTALGAIDKSRGGGGDLERFIARDIIRFPGFVNNVSEVIKAHHIFVLPSYYREGVPRSTQEAMAVGRAVITTDVPGCRETVADKVNGFLIEPWNPRILAEKMIYFIENRAAVRLMANASYAIAKDKFDAEKVDLKFLDILKA
MGSDKIHHHHHHMKIYCSKDSLITGVNTVQKAVSNKNTLPVLQGIMIRAEGQSLIFEATDLEIGIRCVVPAQVEKEGVVVLPSRLFSDLVCKLPDVLIELELQNDVINIHYNESDLSLRGYDPEEFPLLPDLFDAETFNLPVSIFKTMIKQTIFACSAEESRPVFTGCLLQIEDGSLRLIATDTHRLAYRIAEISNPEQIKFQGIIPAKTLGEIYRLLRDEDENLFIRFNQAQIVFQFGAVHLLSRLIEGQFPNYKQVIPQSCQTKVLLSARLFQDSVERASLLARDGSHTSIIKLSVDTERLSIDQTSELGKISEQMEVKKEGNDVKIAFNSKFLLDVLKIIDSEEIVFELSGSYSPGIIRPVDDPNYLYLALPVRTS
MGSDKIHHHHHHMKIYRVGGSVRDELLGLPVKDQDYVVVGATPEEMVRLGYRPVGKDFPVFLHPETHEQYALARTERKIARGYKGFEVYAAPGVTLQEDLARRDLTINAMARDEAGDIVDPFGGIADLQAGILRHIGPAFVEDPVRVLRVARFAARFGFQIAPETLELMKEIVHTGETEALVPERVWQEIAHGLMESHPSRMFYVLRECGALARILPEVDALFGVPQPAHAHPEIDTGIHVMMVIDHAASKQYPLEVRFAGLTHDLGKGTTSPDEWPRHIGHEARSVELVMGLCERIRVPGESRDLALLVARFHGDVHRALELRPATIADMLQATDAYRKKARFQAFLQACASDFHGRPGFADKPYPQKEHLSRALQVAVDVDAGAIAMQLNQSHAGKADLPMRINRQVYAARVERISSLLSHL
MGSDKIHHHHHHMKKIGIIGGGQLGKMMTLEAKKMGFYVIVLDPTPRSPAGQVADEQIVAGFFDSERIEDLVKGSDVTTYDLEHIDVQTLKKLYNEGYKIHPSPYTLEIIQDKFVQKEFLKKNGIPVPEYKLVKDLESDVREFGFPVVQKARKGGYDGRGVFIIKNEKDLENAIKGETYLEEFVEIEKELAVMVARNEKGEIACYPVVEMYFDEDANICDTVIAPARIEEKYSKIAREIATSVVEALEGVGIFGIEMFLTKQGEILVNEIAPRPHNSGHYTIEACVTSQFEQHIRAIMNLPLGSTELLIPAVMVNLLGEEGYYGKPALIGLEEALAIEGLSLHFYGKKETRPYRKMGHFTVVDRDVERALEKALRAKKILKVVSEEGAMCQG
MGSDKIHHHHHHMKKIGLTTTVPIEVLLSAGYTPIDLNNIFVGSKDYSKYIDIAEKDGFPKSLCAWIKGIYGACISNDIKEIVGVHDGDCSNTKALTEVLSMKGIKVYPFSYPSSHNINDVKDELDAFMNLFHVTLNQVEKIRTRLNKLRELGIEIDKLTFEDNKATALENHIWQISFSDLNGDIDAFNSDLIKTIADIKKREASSSKLRLGYIGVPPMTPDIYEFVTNFDAKIVYNEVQREFAFPRSSKAKDIYEQYFDYTYPYDVYFRIDEISRQIEERHIDGIIHYTQAFCYRAVQDIVIKEKLRVPVINIEGDRLNHLDARTKLRLEAFLDMLLDSKEGIF
MGSDKIHHHHHHMKKLIDYLKANKITEVECVISDMTGIARGKIAPVDKFIDEKGMRLPESVLLQTVTGDYVDDDLYDSLLDKADIDFVCVPDENAVFMLPWTVEATAQVIHDTFDKMGNPIELSPRNLLKKVLKLYEDKGWKPVIAPEMEFYLTHRNSDPDMPLIPPVGRSGRKESGRQSFSIDAANEYDPLFEDMYDWCEAQGLDIDTLIHEEGTAQMEINFSHGDALSLADQVFVFKRTLREAALKHDVCATFMAKPVTDEPGSAMHIHQSVVDIKTGKNIFTNEDGTKSAKFLCYIGGLQKYIPELLPLMAPNVNSFRRFLPGTSAPVNLEWGDENRTCGLRIPESSPQNRRIENRIAGADANSYLAIAATLLCGYMGMVEDVKPSTPVQGRANENRQGISLPLTLEEALAVMSESSAVREYLGDTFTSGYIAVKQADLENFRRVISSWEREFLLLTV
MGSDKIHHHHHHMKKLLNTLYLTQEDFYVTKEGDNIVIKQEGKVLKRFPFRIIDGIVCFSYLGVSSALVKLCTENQINLSFHTPQGRFCGRYIGSTNGNVLLRREHYRLSDREESLEYAKRFILAKISNSRKYLLRFKRDHRQQIDTKLFEAVNDELIWALEMVQAADNKDSLRGIEGQAANQYFRIFNDLVLTDKKTFYFQGRSKRPPLDCVNALLSFGYSLLTFECQSALEAVGLDSYVGFFHTDRPGRASLALDLVEEFRSYIVDRFVFSLINKGQLQKKHFEVKENGSILLTENGRAIFIDLWQKRKHTEVEHPFTKEKVKLMLLPYVQAQLLAKAIRGDLESYPPFMV
MGSDKIHHHHHHMKKVERINTIMRYINNRSHFTISEIIREFNISRSTAIRDIREIEAMGMPLVAEVGRSGGYFVMHNSILPVVRFTDNEVKALFIAFMATRNQQLPYLKSRQSLAEKLLGLISETQQDDLVLLNQLLLFEGTNPHNPDLLELSDLPHPMLEKLIQILLLDRYLLITVKEEIKSYPIYLLHLYKEKSYWIIEGFDLKEEKKLMFPVDDLINIEPYTPKKRLHKKQILERLSKKDEAINLVFELGPKAIAQFKKYHPFKVSISYTNPYQSTAILKTFIDVHNSDEVTEMTNWLLFLGKDITIKEMPEEVLKDLQERLCLYTP
MGSDKIHHHHHHMKLAKFDTQPLPHFLMESATVDYAHADIRKLAAALSSDDSTATARHCFEWVRDHIEHSMDFHREEVTCAASDVLQQGTGLCTAKSHLLVALWRANQIPAGFCYQRLTLDGPNPPYCTHGFTAVWLNGRGWYRCDARGNSKPGIHCEFTPGQENLAFSSRYDGERTYPEVWAEPWPDLLTAMEKLQNISQYRSHPIDARPPAADLCVSESAAPNME
MGSDKIHHHHHHMKLIESVPNFSEGRRKEVVEKIVAEAKKYDRVWVLDWSMDADHNRSVITLVGEPENLINALFDMTKKAAELIDLRNHTGQHPRMGAADVIPLVPLYNTTMEECVEYSKILGRRIGEELGIPVYLYEKSATRPERQNLADIRKGEFEGFFEKIKDPLWKPDFGPDRVHPTAGVTAVGAREFLIAFNVNLGTRDVKIAEKIARAIRFSSGGLRYVKAIGVDLKGRGVVQVSINITNHKKTPLYRVFELIKMEAERYGVPVLGSEIVGLFPLESLLKTVSYYLRTDLNAKKVIESNLLEILVRESEK
